Columns and labels:
[1] = biological target: purine nucleoside phosphorylase from Kluyveromyces lactis, 6xHis-tagged, as used in analytical gel filtration (Kluyveromyces lactis); assay: SEC; analytical size exclusion chromatography on a Superdex 200 Increase 10/300 GL column, calibrated with molecular weight marker proteins; single predominant peak at 12.5 mL
[2] = biological target: purine nucleoside phosphorylase from Kluyveromyces lactis, C-terminal 6xHis-tag variant (Kluyveromyces lactis); assay: crystal structure; C-terminal 6xHis-tag variant, 8 mg/mL in 25 mM Tris-HCl, 100 mM NaCl, pH 8.0, mixed with 0.1 M sodium acetate trihydrate pH 4.6, 8% PEG4000; space group P6(1), 1.97 Å, three molecules in the asymmetric unit

Substance | stoichiometry N [1] | stoichiometry N [2]
purine nucleoside phosphorylase from Kluyveromyces lactis, 6xHis-tagged, as used in analytical gel filtration (enzyme) | 3 | 
purine nucleoside phosphorylase from Kluyveromyces lactis, C-terminal 6xHis-tag variant (enzyme) |  | 3

From article PMC5074518
